Measured values from patent US20230120736A1, “ANTI-CD98 ANTIBODIES AND ANTIBODY DRUG CONJUGATES” (AbbVie Inc., priority 2016, published 2023).

Experiments:
human CD98 = molecular target: T1, human CD98 (Homo sapiens, UniProt P08195); assay: Binding of humanized antibodies to human CD98; conditions: humanized framework engineered antibodies
T1 sequence (P08195 1-630 isoform P08195-1): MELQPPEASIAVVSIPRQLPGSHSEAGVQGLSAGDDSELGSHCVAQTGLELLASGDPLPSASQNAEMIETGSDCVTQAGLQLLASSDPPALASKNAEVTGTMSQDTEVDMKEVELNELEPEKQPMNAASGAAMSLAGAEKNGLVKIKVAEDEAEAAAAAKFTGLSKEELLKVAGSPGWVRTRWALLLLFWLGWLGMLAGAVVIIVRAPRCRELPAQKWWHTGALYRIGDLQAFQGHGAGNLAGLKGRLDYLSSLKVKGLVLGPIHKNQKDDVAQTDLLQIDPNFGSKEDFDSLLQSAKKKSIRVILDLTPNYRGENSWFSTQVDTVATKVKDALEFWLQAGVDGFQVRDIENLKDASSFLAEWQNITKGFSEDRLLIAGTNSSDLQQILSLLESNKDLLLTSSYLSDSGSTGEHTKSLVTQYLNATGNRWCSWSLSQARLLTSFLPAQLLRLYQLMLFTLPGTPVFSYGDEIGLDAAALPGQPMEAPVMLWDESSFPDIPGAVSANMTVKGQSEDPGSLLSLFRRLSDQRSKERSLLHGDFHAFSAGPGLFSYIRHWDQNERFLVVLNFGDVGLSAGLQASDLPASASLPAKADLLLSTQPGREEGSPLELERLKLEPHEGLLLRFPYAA

[1] = system: cynomolgus monkey CD98 ECD; assay: Biacore surface plasmon resonance binding kinetics (anti-Fc capture); conditions: cyCD98 ECD
Sequence of cynomolgus monkey CD98 ECD (as listed by the source): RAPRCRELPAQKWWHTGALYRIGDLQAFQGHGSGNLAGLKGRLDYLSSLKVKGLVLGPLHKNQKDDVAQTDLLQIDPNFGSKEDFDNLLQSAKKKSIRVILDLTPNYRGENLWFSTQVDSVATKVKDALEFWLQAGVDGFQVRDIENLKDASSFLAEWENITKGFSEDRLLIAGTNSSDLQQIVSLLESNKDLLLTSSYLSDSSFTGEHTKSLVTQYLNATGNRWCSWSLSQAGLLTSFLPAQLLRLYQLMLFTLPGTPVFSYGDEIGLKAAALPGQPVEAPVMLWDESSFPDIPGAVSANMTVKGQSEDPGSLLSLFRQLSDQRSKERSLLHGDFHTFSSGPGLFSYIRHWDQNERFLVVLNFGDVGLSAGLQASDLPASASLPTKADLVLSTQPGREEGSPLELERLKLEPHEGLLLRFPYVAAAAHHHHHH
Experimental: (§1) The binding kinetics of these purified mouse and rat monoclonal anti-CD98 antibodies for purified recombinant CD98 protein (extracellular domain, ECD) were determined by surface plasmon resonance-based measurements made on Biacore T100/T200 instruments (GE Healthcare, Piscataway, N.J.) at 25° C. using an anti-Fc capture assay approach. Binding kinetic measurements were made in the assay buffer HBS-EP+: 10 mM Hepes, pH 7.4, 150 mM NaCl, 3 mM EDTA, 0.05% Tween 20). For example, approximately 8000 RU of anti-Fc (species specific) polyclonal antibody (Thermo Fisher Scientific Inc., Rockford, Ill.) diluted in 10 mM sodium acetate (pH 4.5) was directly immobilized across a CM5 research grade biosensor chip using a standard amine coupling kit according to manufacturer's instructions and procedures at 25 μg/ml. Unreacted moieties on the biosensor surface were blocked with ethanolamine. The test antibody to be captured as a ligand was diluted in running buffer to ˜0.5 μg/mL and injected over anti-Fc surface at a flow rate of 10 μL/min. CD98 binding and dissociation were observed under a continuous flow rate of 80 μL/min. Human and cynomolgus monkey CD98 ECDs, both with a C-terminal His-tag, are used for this study (Table 3). After each cycle the anti-Fc capture surface was regenerated using 10 mM Glycine-HCl, pH 1.5. During the assay, all measurements were referenced against the capture surface alone (i.e., with no captured test antibody) and buffer-only injections (no antigen) were used for double referencing. For kinetic analysis, rate equations derived from the 1:1 Langmuir binding model were fitted simultaneously, globally and with mass transfer term included to multiple referenced antigen binding curves using Biacore T100/T200 Evaluation software.
(§2) The in vitro binding activities of the recombinant anti-CD98 chimeric mAbs were measured against both recombinant CD98 extracellular domain proteins (ECDs) and CD98-expressing cells. Briefly, binding kinetics of anti-CD98 chimera mAbs for human and cynomolgus CD98 ECDs were determined by surface plasmon resonance-based measurements as described in Example 4. Table 10 reported the association and dissociation rate constants for CD98 binding, ka (M^−1 s^−1) and kd (s^−1), and the equilibrium dissociation constant KD (M) of the interaction between antibodies and the target antigen. Binding of anti-CD98 chimera mAbs for CD98 on cell surface was evaluated by flow cytometry against CHO-K1 cell line stably transfected to express human CD98 and 3T12 cell line stably transfected to express cynomolgus monkey CD98.
(§3) The binding kinetics of the recombinant anti-CD98 chimeric antibodies for purified recombinant CD98 protein (extracellular domain, ECD) were determined by surface plasmon resonance-based measurements, as described in the Example 4.

human CD98 ECD = molecular target: T2, human CD98 ECD (Homo sapiens, UniProt P08195); assay: as above; conditions: huCD98 ECD
T2 construct: Human CD98 ECD with C-terminal His-tag
T2 sequence (P08195 with tags, fused parts or gaps): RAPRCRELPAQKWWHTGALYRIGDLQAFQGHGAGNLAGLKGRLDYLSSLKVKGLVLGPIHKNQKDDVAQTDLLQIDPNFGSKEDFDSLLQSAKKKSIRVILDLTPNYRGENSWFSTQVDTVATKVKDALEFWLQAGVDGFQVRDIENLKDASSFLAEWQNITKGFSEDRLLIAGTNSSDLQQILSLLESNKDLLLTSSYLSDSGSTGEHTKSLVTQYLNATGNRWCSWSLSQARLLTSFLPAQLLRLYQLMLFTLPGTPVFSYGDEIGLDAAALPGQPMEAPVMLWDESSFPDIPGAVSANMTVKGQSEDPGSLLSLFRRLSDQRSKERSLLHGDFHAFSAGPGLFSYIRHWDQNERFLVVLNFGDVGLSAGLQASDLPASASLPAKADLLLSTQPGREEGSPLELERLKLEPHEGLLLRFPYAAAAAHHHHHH
Experimental: as §1, §2, §3

[2] = Conjugation of anti-CD98 mAbs with Bcl-xL inhibitor synthons (precipitation, DAR, recovery, aggregation); conditions: Method E
Experimental: Method A. A solution of BOND-BREAKER tris(2-carboxyethyl)phosphine (TCEP) solution (10 mM, 0.017 mL) was added to a solution of antibody (10 mg/mL, […]) preheated to 37° C. The reaction mixture was kept at 37° C. for 1 hour. The solution of reduced antibody was added to a solution of synthon (3.3 mM, 0.160 mL in DMSO) and gently mixed for 30 minutes. The reaction solution was loaded onto a desalting column (PD10, washed with DPBS 3x before use), followed by DPBS (1.6 mL) and eluted with additional DPBS (3 mL). The purified ADC solution was filtered through a 0.2 micron, low protein-binding 13 mm syringe-filter and stored at 4° C.
Method E. A solution of BOND-BREAKER tris(2-carboxyethyl)phosphine (TCEP) solution (10 mM, 0.017 mL) was added to the solution of antibody (10 mg/mL, 1 mL) at room temperature. The reaction mixture was heated to 37° C. for 75 minutes. The solution of reduced antibody cooled to room temperature and was added to a solution of synthon (10 mM, 0.040 mL in DMSO) followed by addition of boric buffer (0.1 mL, 1M, pH 8). The reaction solution was let to stand for 3 days at room temperature, loaded onto a desalting column (PD10, washed with DPBS 3×5 mL before use), followed by DPBS (1.6 mL) and eluted with additional DPBS (3 mL). The purified ADC solution was filtered through a 0.2 micron, low protein-binding 13 mm syringe-filter and stored at 4° C.

B1: huAb105: "heavy chain variable sequence of huAb105 is provided in SEQ ID NO: 111"; "light chain variable sequence ... in SEQ ID NO: 112" (antibody, V domains shown)
VH: EVQLVESGGGLVQPGGSLRLSCAASGFTFSDYTMAWVRQAPGKGLEWVATIIYSGRGTYYRDAVKGRFTISRDNAKNTLYLQMNSLRAEDTAVYYCARQSDHTYYYWGYFDYWGQGTMVTVSS
VL: DIVMTQTPLSLPVTPGEPASINCKSSQSLLFSGNQKNYLAWYLQKPGQSPQLLIYWASTRQSGVPDRFSGSGSGTDFTLKISRVEAEDVGIYYCQQYYDVPYTFGQGTKLEIK
- binding to human CD98 (human CD98): maintained binding
- ka [1]: 38000 M⁻¹ s⁻¹
- kd [1]: 5.3e-05 s⁻¹
- ka (human CD98 ECD): 140000 M⁻¹ s⁻¹
- kd (human CD98 ECD): 2.4e-05 s⁻¹
- DAR by MS ([2]; conjugation with synthon CZ): 1.2
- % Aggregates by SEC ([2]; conjugation with synthon TX): 0.6%
- DAR by MS ([2]; conjugation with synthon TX): 1.7

B2: huAb107: "heavy chain variable sequence of huAb107 is provided in SEQ ID NO: 114"; "light chain variable sequence ... in SEQ ID NO: 112" (antibody, V domains shown)
VH: EVQLVESGGGLVQPGGSLRLSCAASGFTFSDYTMAWVRQAPGKGLEWVATIIYSGRGTYYRDAVKGRFTISRDNAKNTLYLQMNSLRAEDTAVYYCARQSDDTYYYWGYFDYWGQGTMVTVSS
VL: DIVMTQTPLSLPVTPGEPASINCKSSQSLLFSGNQKNYLAWYLQKPGQSPQLLIYWASTRQSGVPDRFSGSGSGTDFTLKISRVEAEDVGIYYCQQYYDVPYTFGQGTKLEIK
- binding to human CD98 (human CD98): maintained binding
- ka [1]: 33000 M⁻¹ s⁻¹
- kd [1]: 8.7e-05 s⁻¹
- ka (human CD98 ECD): 110000 M⁻¹ s⁻¹
- kd (human CD98 ECD): 3.8e-05 s⁻¹
- % Aggregates by SEC ([2]; conjugation with synthon CZ): 1.9%
- DAR by MS ([2]; conjugation with synthon CZ): 2.2
- % Aggregates by SEC ([2]; conjugation with synthon TX): 1.5%
- DAR by MS ([2]; conjugation with synthon TX): 3.1

B3: huAb109: "heavy chain variable sequence of huAb109 is provided in SEQ ID NO: 116"; "light chain variable sequence ... in SEQ ID NO: 117" (antibody, V domains shown)
VH: EVQLVESGGGLVQPGGSLRLSCAASGFTFSDYTMAWVRQAPGKGLEWVATIIYDARGTYYRDAVKGRFTISRDNAKNTLYLQMNSLRAEDTAVYYCARQSDDTYYYWGYFDYWGQGTMVTVSS
VL: DIVMTQTPLSLPVTPGEPASINCKSSQSLLFSGNQKNYLAWYLQKPGQSPQLLIYWASTRQSGVPDRFSGSGSGTDFTLKISRVEAEDVGIYYCQQYYSSPYTFGQGTKLEIK
- binding to human CD98 (human CD98): maintained binding
- ka [1]: 26000 M⁻¹ s⁻¹
- kd [1]: 0.00031 s⁻¹
- ka (human CD98 ECD): 160000 M⁻¹ s⁻¹
- kd (human CD98 ECD): 0.00017 s⁻¹
- % Aggregates by SEC ([2]; conjugation with synthon CZ): 2.5%
- DAR by MS ([2]; conjugation with synthon CZ): 2.1
- % Aggregates by SEC ([2]; conjugation with synthon TX): 1.0%
- DAR by MS ([2]; conjugation with synthon TX): 2.9
